Experimental data: patent publication US20230407373A1 (priority 2020, published 2023)
Where two headings read alike, the source gives them in different places.

Columns and labels:
Assay type in all cases: binding
[1] = tested on: SARS-CoV-2 gRNA and sgRNAs; conditions: for background (unweighted spectral count in control): no-probe control pull-down, used as background for Probe II; for target (unweighted spectral count in RNP capture): Probe II capture, LC-MS/MS LFQ
SARS-CoV-2 gRNA = conditions: for target (unweighted spectral count of the protein in the RNP capture): LC-MS/MS, Probe I sample (first 199 lines of Table 2)
HCoV-OC43 gRNA and sgRNA = tested on: HCoV-OC43 gRNA and sgRNA
[2] = 24 hpi, type n_24_v, tested against no-probe control, FDR<10%
[3] = OC43 Probe II, 12 hpi (type n_12_v), infected cells, tested against no-probe control
[4] = 36 hpi, type n_36_v, tested against no-probe control, FDR<10%
[5] = OC43 Probe II, 24 hpi (type n_24_v), infected cells, tested against no-probe control
[6] = type n_48_v, 48 hpi, OC43 Probe II capture on infected cells
[7] = type n_48_v, 48 hpi, no-probe control on infected cells

Molecule | background (unweighted spectral count in control) [1] | target (unweighted spectral count of the protein in the RNP capture) (SARS-CoV-2 gRNA; […]) | target (unweighted spectral count, OC43 Probe II capture) (HCoV-OC43 gRNA and sgRNA; [2]) | target (unweighted spectral count) (HCoV-OC43 gRNA and sgRNA; [3]) | target (unweighted spectral count, OC43 Probe II) (HCoV-OC43 gRNA and sgRNA; type n_36_v, 36 hpi, OC43 Probe II capture on infected cells) | background (unweighted spectral count, no-probe control) (HCoV-OC43 gRNA and sgRNA; type n_36_v, 36 hpi, no-probe control on infected cells) | target (unweighted spectral count in RNP capture) [1] | background (unweighted spectral count, no-probe control) (HCoV-OC43 gRNA and sgRNA) | target (unweighted spectral count) (HCoV-OC43 gRNA and sgRNA) | target (unweighted spectral count, OC43 Probe II capture) (HCoV-OC43 gRNA and sgRNA) | target (unweighted spectral count, OC43 Probe II) (HCoV-OC43 gRNA and sgRNA) | target (unweighted spectral count, OC43 Probe II capture) (HCoV-OC43 gRNA and sgRNA; [4]) | target (unweighted spectral count) (HCoV-OC43 gRNA and sgRNA; [5]) | target (unweighted spectral count, OC43 Probe II) (HCoV-OC43 gRNA and sgRNA; [6]) | background (unweighted spectral count, no-probe control) (HCoV-OC43 gRNA and sgRNA; [7]) | target (spectral count) (HCoV-OC43 gRNA and sgRNA; type s_36_m, HCoV-OC43-infected HCT-8 cells, 36 hpi, Probe II) | background (spectral count) (HCoV-OC43 gRNA and sgRNA; type s_36_m, uninfected-probe control, 36 hpi, Probe II) | target (unweighted spectral count in RNP capture) (SARS-CoV-2 gRNA; Probe I capture, […], LC-MS/MS LFQ) | background (unweighted spectral count in control) (SARS-CoV-2 gRNA; no-probe control pull-down, used as background for Probe I)
MAP4 (protein, UniProt P27816 2-1152, looked up) Microtubule-associated …: ADLSLADALTEPSPDIEGEIKRDFIATLEAEAFDDVVGETVGKTDYIPLLDVDEKTGNSESKKKPCSETSQIEDTPSSKPTLLANGGHGVEGSDTTGSPTEFLEEKMAYQEYPNSQNWPEDTNFCFQPEQVVDPIQTDPFKMYHDDDLADLVFPSSATADTSIFAGQNDPLKDSYGMSPCNTAVVPQGWSVEALNSPHSESFVSPEAVAEPPQPTAVPLELAKEIEMASEERPPAQALEIMMGLKTTDMAPSKETEMALAKDMALATKTEVALAKDMESPTKLDVTLAKDMQPSMESDMALVKDMELPTEKEVALVKDVRWPTETDVSSAKNVVLPTETEVAPAKDVTLLKETERASPIKMDLAPSKDMGPPKENKKETERASPIKMDLAPSKDMGPPKENKIVPAKDLVLLSEIEVAQANDIISSTEISSAEKVALSSETEVALARDMTLPPETNVILTKDKALPLEAEVAPVKDMAQLPETEIAPAKDVAPSTVKEVGLLKDMSPLSETEMALGKDVTPPPETEVVLIKNVCLPPEMEVALTEDQVPALKTEAPLAKDGVLTLANNVTPAKDVPPLSETEATPVPIKDMEIAQTQKGISEDSHLESLQDVGQSAAPTFMISPETVTGTGKKCSLPAEEDSVLEKLGERKPCNSQPSELSSETSGIARPEEGRPVVSGTGNDITTPPNKELPPSPEKKTKPLATTQPAKTSTSKAKTQPTSLPKQPAPTTIGGLNKKPMSLASGLVPAAPPKRPAVASARPSILPSKDVKPKPIADAKAPEKRASPSKPASAPASRSGSKSTQTVAKTTTAAAVASTGPSSRSPSTLLPKKPTAIKTEGKPAEVKKMTAKSVPADLSRPKSTSTSSMKKTTTLSGTAPAAGVVPSRVKATPMPSRPSTTPFIDKKPTSAKPSSTTPRLSRLATNTSAPDLKNVRSKVGSTENIKHQPGGGRAKVEKKTEAAATTRKPESNAVTKTAGPIASAQKQPAGKVQIVSKKVSYSHIQSKCGSKDNIKHVPGGGNVQIQNKKVDISKVSSKCGSKANIKHKPGGGDVKIESQKLNFKEKAQAKVGSLDNVGHLPAGGAVKTEGGGSEAPLCPGPPAGEEPAISEAAPEAGAPTSASGLNGHPTLSGGGDQREAQTLDSQIQETSI | 1 | 14 | 8 | 5 | 11 | 4 |  |  |  |  |  |  |  |  |  |  |  |  | 
SRSF7 (protein, UniProt Q16629 1-238, looked up) Serine/arginine-rich splicing …: MSRYGRYGGETKVYVGNLGTGAGKGELERAFSYYGPLRTVWIARNPPGFAFVEFEDPRDAEDAVRGLDGKVICGSRVRVELSTGMPRRSRFDRPPARRPFDPNDRCYECGEKGHYAYDCHRYSRRRRSRSRSRSHSRSRGRRYSRSRSRSRGRRSRSASPRRSRSISLRRSRSASLRRSRSGSIKGSRYFQSPSRSRSRSRSISRPRSSRSKSRSPSPKRSRSPSGSPRRSASPERMD | 1 | 21 |  |  |  |  | 16 | 4 | 5 | 14 | 19 |  |  |  |  |  |  |  | 
KHSRP (protein, UniProt Q92945 2-711, looked up) Far upstream element-binding …: SDYSTGGPPPGPPPPAGGGGGAGGAGGGPPPGPPGAGDRGGGGPGGGGPGGGSAGGPSQPPGGGGPGIRKDAFADAVQRARQIAAKIGGDAATTVNNSTPDFGFGGQKRQLEDGDQPESKKLASQGDSISSQLGPIHPPPRTSMTEEYRVPDGMVGLIIGRGGEQINKIQQDSGCKVQISPDSGGLPERSVSLTGAPESVQKAKMMLDDIVSRGRGGPPGQFHDNANGGQNGTVQEIMIPAGKAGLVIGKGGETIKQLQERAGVKMILIQDGSQNTNVDKPLRIIGDPYKVQQACEMVMDILRERDQGGFGDRNEYGSRIGGGIDVPVPRHSVGVVIGRSGEMIKKIQNDAGVRIQFKQDDGTGPEKIAHIMGPPDRCEHAARIINDLLQSLRSGPPGPPGGPGMPPGGRGRGRGQGNWGPPGGEMTFSIPTHKCGLVIGRGGENVKAINQQTGAFVEISRQLPPNGDPNFKLFIIRGSPQQIDHAKQLIEEKIEGPLCPVGPGPGGPGPAGPMGPFNPGPFNQGPPGAPPHAGGPPPHQYPPQGWGNTYPQWQPPAPHDPSKAAAAAADPNAAWAAYYSHYYQQPPGPVPGPAPAPAAPPAQGEPPQPPPTGQSDYTKAWEEYYKKIGQQPQQPGAPPQQDYTKAWEEYYKKQAQVATGGGPGAPPGSQPDYSAAWAEYYRQQAAYYGQTPGPGGPQPPPTQQGQQQAQ | 1 | 128 |  | 23 |  |  | 82 |  |  |  |  | 76 | 47 | 86 | 5 |  |  |  | 
ATXN2L: host protein, UniProt Q8WWM7 (protein, UniProt Q8WWM7 1-1075, looked up) Ataxin-2-like protein: MLKPQPLQQPSQPQQPPPTQQAVARRPPGGTSPPNGGLPGPLATSAAPPGPPAAASPCLGPVAAAGSGLRRGAEGILAPQPPPPQQHQERPGAAAIGSARGQSTGKGPPQSPVFEGVYNNSRMLHFLTAVVGSTCDVKVKNGTTYEGIFKTLSSKFELAVDAVHRKASEPAGGPRREDIVDTMVFKPSDVMLVHFRNVDFNYATKDKFTDSAIAMNSKVNGEHKEKVLQRWEGGDSNSDDYDLESDMSNGWDPNEMFKFNEENYGVKTTYDSSLSSYTVPLEKDNSEEFRQRELRAAQLAREIESSPQYRLRIAMENDDGRTEEEKHSAVQRQGSGRESPSLASREGKYIPLPQRVREGPRGGVRCSSSRGGRPGLSSLPPRGPHHLDNSSPGPGSEARGINGGPSRMSPKAQRPLRGAKTLSSPSNRPSGETSVPPPPAVGRMYPPRSPKSAAPAPISASCPEPPIGSAVPTSSASIPVTSSVSDPGVGSISPASPKISLAPTDVKELSTKEPGRTLEPQELARIAGKVPGLQNEQKRFQLEELRKFGAQFKLQPSSSPENSLDPFPPRILKEEPKGKEKEVDGLLTSEPMGSPVSSKTESVSDKEDKPPLAPSGGTEGPEQPPPPCPSQTGSPPVGLIKGEDKDEGPVAEQVKKSTLNPNAKEFNPTKPLLSVNKSTSTPTSPGPRTHSTPSIPVLTAGQSGLYSPQYISYIPQIHMGPAVQAPQMYPYPVSNSVPGQQGKYRGAKGSLPPQRSDQHQPASAPPMMQAAAAAGPPLVAATPYSSYIPYNPQQFPGQPAMMQPMAHYPSQPVFAPMLQSNPRMLTSGSHPQAIVSSSTPQYPSAEQPTPQALYATVHQSYPHHATQLHAHQPQPATTPTGSQPQSQHAAPSPVQHQAGQAPHLGSGQPQQNLYHPGALTGTPPSLPPGPSAQSPQSSFPQPAAVYAIHHQQLPHGFTNMAHVTQAHVQTGITAAPPPHPGAPHPPQVMLLHPPQSHGGPPQGAVPQSGVPALSASTPSPYPYIGHPQGEQPGQAPGFPGGADDRIREFSLAGGIWHGRAEGLQVGQDARVLGGE | 1 | 9 |  | 4 |  |  | 28 |  |  |  |  | 10 | 6 | 12 | 1 | 10 | 1 |  | 
MBNL1 (protein, UniProt Q9NR56 1-388, looked up) Muscleblind-like protein 1: MAVSVTPIRDTKWLTLEVCREFQRGTCSRPDTECKFAHPSKSCQVENGRVIACFDSLKGRCSRENCKYLHPPPHLKTQLEINGRNNLIQQKNMAMLAQQMQLANAMMPGAPLQPVPMFSVAPSLATNASAAAFNPYLGPVSPSLVPAEILPTAPMLVTGNPGVPVPAAAAAAAQKLMRTDRLEVCREYQRGNCNRGENDCRFAHPADSTMIDTNDNTVTVCMDYIKGRCSREKCKYFHPPAHLQAKIKAAQYQVNQAAAAQAAATAAAMTQSAVKSLKRPLEATFDLGIPQAVLPPLPKRPALEKTNGATAVFNTGIFQYQQALANMQLQQHTAFLPPVPMVHGATPATVSAATTSATSVPFAATATANQIPIISAEHLTSHKYVTQM | 1 | 19 |  | 5 |  |  | 32 |  |  |  |  |  |  |  |  |  |  |  | 
FUS (protein, UniProt P35637 1-526, looked up) RNA-binding protein FUS: MASNDYTQQATQSYGAYPTQPGQGYSQQSSQPYGQQSYSGYSQSTDTSGYGQSSYSSYGQSQNTGYGTQSTPQGYGSTGGYGSSQSSQSSYGQQSSYPGYGQQPAPSSTSGSYGSSSQSSSYGQPQSGSYSQQPSYGGQQQSYGQQQSYNPPQGYGQQNQYNSSSGGGGGGGGGGNYGQDQSSMSSGGGSGGGYGNQDQSGGGGSGGYGQQDRGGRGRGGSGGGGGGGGGGYNRSSGGYEPRGRGGGRGGRGGMGGSDRGGFNKFGGPRDQGSRHDSEQDNSDNNTIFVQGLGENVTIESVADYFKQIGIIKTNKKTGQPMINLYTDRETGKLKGEATVSFDDPPSAKAAIDWFDGKEFSGNPIKVSFATRRADFNRGGGNGRGGRGRGGPMGRGGYGGGGSGGGGRGGFPSGGGGGGGQQRAGDWKCPNPTCENMNFSWRNECNQCKAPKPDGPGGGPGGSHMGGNYGDDRRGGRGGYDRGGYRGRGGDRGGFRGGRGGGDRGGFGPGKMDSRGEHRQDRRERPY | 1 | 5 |  | 6 |  |  | 7 |  |  |  |  | 7 | 9 | 11 | 1 |  |  |  | 
EDF1 (protein, UniProt O60869 2-148, looked up) Endothelial …: AESDWDTVTVLRKKGPTAAQAKSKQAILAAQRRGEDVETSKKWAAGQNKQHSITKNTAKLDRETEELHHDRVTLEVGKVIQQGRQSKGLTQKDLATKINEKPQVIADYESGRAIPNNQVLGKIERAIGLKLRGKDIGKPIEKGPRAK | 1 |  | 4 |  |  |  | 8 |  |  |  |  |  |  |  |  |  |  | 5 | 1
